What all share (conditions): both partners purified
In test [1] the target is T1, TRPA1 N-terminal cytosolic region (aa 1-721), GST-tagged (mouse, UniProt Q8BLA8 1-721).
T1 construct: transient receptor potential ankyrin member 1, mouse, NP_808449, residues 1-721; Vector carries GST/HaloTag and a TEV site; also called TRPA1 N-terminus; TRPA1 N-terminal domain; source: E. coli BL21 (KRX), purified (GStrap FF or HaloLink Resin); not shown: GST, N-terminal, kept
Description: pull-down; TRP sequence (100 nM) covalently attached to NHS-activated Sepharose 4FF; prey 200 nM; 200 µL 50 mM Tris-HCl pH 7.5, 0.2% CHAPS, with 3 mM CaCl2; 30 min at RT, three washes; Western blot.

The target in test [2] is T2, TRPM8 N-terminal cytosolic region (aa 1-639), GST-tagged (mouse, UniProt Q8R4D5 1-639).
T2 construct: transient receptor potential melastatin member 8, mouse, NP_599013, residues 1-639; also called TRPM8 N-terminus; source: E. coli BL21 (KRX), purified (GStrap FF or HaloLink Resin); not shown: GST, N-terminal, kept
Described as above.

The target of test [3] is T1, TRPA1 N-terminal cytosolic region (aa …). Description: pull-down; competition: immobilised TRP sequence with CaM or HINT1 and increasing concentrations of σ1R (up to 200 nM), 3 mM CaCl2; bound CaM or HINT1 by Western blot, relative to no σ1R.

B1: sigma 1 receptor (σ1R), full-length murine, GST-free (natural protein, mouse, UniProt O55242 1-223, looked up)
chain: MPWAAGRRWAWITLILTIIAVLIQAAWLWLGTQNFVFSREEIAQLARQYAGLDHELAFSRLIVELRRLHPGHVLPDEELQWVFVNAGGWMGAMCILHASLSEYVLLFGTALGSHGHSGRYWAEISDTIISGTFHQWKEGTTKSEVFYPGETVVHGPGEATALEWGPNTWMVEYGRGVIPSTLFFALADTFFSTQDYLTLFYTLRAYARGLRLELTTYLFGQDS
notes: sigma 1 receptor, mouse, GenBank AF004927, coding region of the full-length protein; 223 amino acids; also called type 1 sigma receptor; source: E. coli BL21 (KRX), purified (GStrap FF or HaloLink Resin, cleaved with ProTEV protease, ion exchange); not shown: GST, N-terminal, cleaved
For B1, the binding result in test [1] and in test [2] was “binds” throughout.

B2: histidine triad nucleotide-binding protein 1 (HINT1), murine, GST-free (natural protein, mouse, UniProt P70349 1-126, looked up)
chain: MADEIAKAQVAQPGGDTIFGKIIRKEIPAKIIFEDDRCLAFHDISPQAPTHFLVIPKKHISQISVADDDDESLLGHLMIVGKKCAADLGLKRGYRMVVNEGADGGQSVYHIHLHVLGGRQMNWPPG
notes: source: E. coli BL21 (KRX), purified (GStrap FF or HaloLink Resin, cleaved with ProTEV protease, ion exchange); not shown: GST, N-terminal, cleaved
For the molecule B2, the binding result in test [3] and in test [2] was “binds” each time.

(Values after article PMC6582314, “Ligands Exert Biased Activity to Regulate Sigma 1 Receptor Interactions With Cationic TRPA1, TRPV1, and TRPM8 Channels” (Frontiers in Pharmacology, 2019).)
